Data from IntAct's records for PubMed 10487758.

B1: Protein E6 (Human papillomavirus type 16), P03126 (parent)
chain: MHQKRTAMFQDPQERPRKLPQLCTELQTTIHDIILECVYCKQQLLRREVYDFAFRDLCIVYRDGNPYAVCDKCLKFYSKISEYRHYCYSLYGTTLEQQYNKPLCDLLIRCINCQKPLCPEEKQRHLDKKQRFHNIRGRWTGRCMSCCRSSRTRRETQL

Variants of: B1
Conditions: with ep300_human EP300, Q09472
Sequence of ep300_human EP300, Q09472 (Q09472 whole entry): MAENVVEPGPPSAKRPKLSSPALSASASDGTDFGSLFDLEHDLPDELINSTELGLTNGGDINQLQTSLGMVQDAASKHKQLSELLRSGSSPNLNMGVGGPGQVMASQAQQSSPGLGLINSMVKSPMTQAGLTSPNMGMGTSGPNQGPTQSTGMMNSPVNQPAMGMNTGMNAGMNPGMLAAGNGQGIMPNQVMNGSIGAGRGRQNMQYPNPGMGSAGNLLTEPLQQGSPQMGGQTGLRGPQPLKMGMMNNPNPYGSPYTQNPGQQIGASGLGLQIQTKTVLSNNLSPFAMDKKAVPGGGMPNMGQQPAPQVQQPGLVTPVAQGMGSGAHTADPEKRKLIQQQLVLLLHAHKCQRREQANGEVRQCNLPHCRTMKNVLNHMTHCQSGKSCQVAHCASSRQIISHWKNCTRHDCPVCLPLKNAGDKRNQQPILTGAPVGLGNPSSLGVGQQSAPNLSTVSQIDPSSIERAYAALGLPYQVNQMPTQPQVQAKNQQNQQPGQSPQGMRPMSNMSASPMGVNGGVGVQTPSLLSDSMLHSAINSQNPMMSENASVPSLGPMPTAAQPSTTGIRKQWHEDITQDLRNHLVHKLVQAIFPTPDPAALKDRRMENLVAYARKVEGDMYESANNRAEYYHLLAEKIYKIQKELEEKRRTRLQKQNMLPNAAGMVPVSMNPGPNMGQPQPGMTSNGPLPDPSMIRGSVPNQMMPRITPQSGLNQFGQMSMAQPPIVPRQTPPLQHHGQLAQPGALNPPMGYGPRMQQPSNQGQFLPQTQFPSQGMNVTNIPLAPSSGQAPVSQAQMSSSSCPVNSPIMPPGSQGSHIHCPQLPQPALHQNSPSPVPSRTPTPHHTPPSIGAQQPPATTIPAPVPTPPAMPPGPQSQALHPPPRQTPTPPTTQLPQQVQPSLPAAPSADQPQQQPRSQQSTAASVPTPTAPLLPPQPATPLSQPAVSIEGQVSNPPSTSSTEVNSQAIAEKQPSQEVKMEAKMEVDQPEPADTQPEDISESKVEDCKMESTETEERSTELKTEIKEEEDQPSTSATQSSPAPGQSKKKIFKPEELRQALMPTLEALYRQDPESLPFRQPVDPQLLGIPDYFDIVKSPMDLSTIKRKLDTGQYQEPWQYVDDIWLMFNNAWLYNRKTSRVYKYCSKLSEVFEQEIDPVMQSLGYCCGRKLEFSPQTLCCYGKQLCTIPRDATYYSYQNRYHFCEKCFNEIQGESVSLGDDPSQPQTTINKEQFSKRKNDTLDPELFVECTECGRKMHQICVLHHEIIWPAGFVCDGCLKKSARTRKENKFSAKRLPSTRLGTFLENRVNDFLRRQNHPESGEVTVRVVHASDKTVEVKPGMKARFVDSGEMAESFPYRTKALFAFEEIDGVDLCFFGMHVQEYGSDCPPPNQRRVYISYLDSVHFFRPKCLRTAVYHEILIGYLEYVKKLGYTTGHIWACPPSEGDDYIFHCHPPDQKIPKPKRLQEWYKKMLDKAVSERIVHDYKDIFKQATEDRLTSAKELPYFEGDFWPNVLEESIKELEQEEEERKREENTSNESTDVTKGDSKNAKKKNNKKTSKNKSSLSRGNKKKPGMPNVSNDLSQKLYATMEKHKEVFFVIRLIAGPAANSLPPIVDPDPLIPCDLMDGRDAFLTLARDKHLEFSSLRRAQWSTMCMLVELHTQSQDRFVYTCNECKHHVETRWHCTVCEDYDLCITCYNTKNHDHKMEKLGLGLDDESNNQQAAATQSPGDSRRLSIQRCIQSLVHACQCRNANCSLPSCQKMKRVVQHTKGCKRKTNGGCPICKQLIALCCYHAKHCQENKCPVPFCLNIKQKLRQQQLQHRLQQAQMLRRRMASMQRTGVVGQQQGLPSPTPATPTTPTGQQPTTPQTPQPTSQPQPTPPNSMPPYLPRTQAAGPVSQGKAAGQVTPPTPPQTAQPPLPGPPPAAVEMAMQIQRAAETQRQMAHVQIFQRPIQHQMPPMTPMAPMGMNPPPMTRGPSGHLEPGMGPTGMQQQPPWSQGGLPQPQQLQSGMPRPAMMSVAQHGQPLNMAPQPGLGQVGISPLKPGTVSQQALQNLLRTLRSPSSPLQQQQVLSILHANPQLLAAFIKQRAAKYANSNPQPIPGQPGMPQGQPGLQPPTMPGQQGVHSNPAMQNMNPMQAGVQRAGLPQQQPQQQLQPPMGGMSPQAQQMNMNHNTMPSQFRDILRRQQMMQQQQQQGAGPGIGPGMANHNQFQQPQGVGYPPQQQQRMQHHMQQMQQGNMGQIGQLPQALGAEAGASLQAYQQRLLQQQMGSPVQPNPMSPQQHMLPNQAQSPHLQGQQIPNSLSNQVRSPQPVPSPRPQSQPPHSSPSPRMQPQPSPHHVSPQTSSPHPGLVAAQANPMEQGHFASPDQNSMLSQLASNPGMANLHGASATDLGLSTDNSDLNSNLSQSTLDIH

Row | Variant | effect of a mutation on the interaction
1 | MHQKRTAMFQDPQERPRKLPQLCTELQTTIHDIILECVYCKQQLLRREVYDYAYRHLCIVYRDGNPYAVCDKCLKFYSKISEYRHYCYSLYGTTLEQQYNKPLCDLLIRCINCQKPLCPEEKQRHLDKKQRFHNIRGRWTGRCMSCCRSSRTRRETQL [F52Y;F54Y;D56H] | disrupting interaction

Variants of: B1
Conditions: with ep300_human EP300, Q09472
Remark: another data set of the same source

Row | Variant | effect of a mutation on the interaction
2 | MHQKRTAMFQDPQERPRKLPQLCTELQTTIHDIILECVYCKQQLLRREVYDYAYRHLCIVYRDGNPYAVCDKCLKFYSKISEYRHYCYSLYGTTLEQQYNKPLCDLLIRCINCQKPLCPEEKQRHLDKKQRFHNIRGRWTGRCMSCCRSSRTRRETQL [F52Y;F54Y;D56H] | decreasing interaction
3 | MHQKRTAMFQDPQESATKLPQLCTELQTTIHDIILECVYCKQQLLRREVYDFAFRDLCIVYRDGNPYAVCDKCLKFYSKISEYRHYCYSLYGTTLEQQYNKPLCDLLIRCINCQKPLCPEEKQRHLDKKQRFHNIRGRWTGRCMSCCRSSRTRRETQL [R15S;P16A;R17T] | decreasing interaction
4 | MHQKRTAMFQDPQERPRKLPQLCTELQTTIHDIILECVYCKQQLLRREVYDFAFRDLCIVYRDGNPYAVCDKGLKFYSKISEYRHYCYSLYGTTLEQQYNKPLCDLLIRCINCQKPLCPEEKQRHLDKKQRFHNIRGRWTGRGMSCCRSSRTRRETQL [C73G;C143G] | disrupting interaction
